# Results taken from paper PMC7156267, “Cryo-EM structures of S-OPA1 reveal its interactions with membrane and changes upon nucleotide binding” (eLife, 2020).
# B1: S-OPA1 (short S1 isoform of human OPA1, splice form 1), wild type (natural protein, UniProt O60313 196-960, looked up)
# chain: TDRGSESDKHFRKVSDKEKIDQLQEELLHTQLKYQRILERLEKENKELRKLVLQKDDKGIHHRKLKKSLIDMYSEVLDVLSDYDASYNTQDHLPRVVVVGDQSAGKTSVLEMIAQARIFPRGSGEMMTRSPVKVTLSEGPHHVALFKDSSREFDLTKEEDLAALRHEIELRMRKNVKEGCTVSPETISLNVKGPGLQRMVLVDLPGVINTVTSGMAPDTKETIFSISKAYMQNPNAIILCIQDGSVDAERSIVTDLVSQMDPHGRRTIFVLTKVDLAEKNVASPSRIQQIIEGKLFPMKALGYFAVVTGKGNSSESIEAIREYEEEFFQNSKLLKTSMLKAHQVTTRNLSLAVSDCFWKMVRESVEQQADSFKATRFNLETEWKNNYPRLRELDRNELFEKAKNEILDEVISLSQVTPKHWEEILQQSLWERVSTHVIENIYLPAAQTMNSGTFNTTVDIKLKQWTDKQLPNKAVEVAWETLQEEFSRFMTEPKGKEHDDIFDKLKEAVKEESIKRHKWNDFAEDSLRVIQHNALEDRSISDKQQWDAAIYFMEEALQARLKDTENAIENMVGPDWKKRWLYWKNRTQEQCVHNETKNELEKMLKCNEEHPAYLASDEITTVRKNLESRGVEVDPSLIKDTWHQVYRRHFLKTALNHCNLCRRGFYYYQRHFVDSELECNDVVLFWRIQRMLAITANTLRQQLTNTEVRRLEKNVKEVLEDFAEDGEKKIKLLTGKRVQLAEDLKKVREIQEKLDAFIEALHQEK
# notes: Optic atrophy 1 (OPA1), human, splice form 1 (isoform 1); Dimer in solution by gel filtration, BS3 cross-linking and SEC-MALS; The first residue is worked out from the S1 site (195th residue) and the name of the deletion Δ196-252; also called WT; full-length S-OPA1; source: E. coli Transetta (DE3), purified (Ni-NTA, PreScission cleavage, Superdex 200 gel filtration); not shown: Trx, N-terminal, …
# Biological target: the molecule itself
# Assay: SEC; Superdex 200 10/300 GL, column pre-calibrated with molecular weight markers; 20 mM Tris-HCl pH 8.0, 150 mM NaCl, 1 mM DTT; self-association in solution
protein,measurement,value
B1,stoichiometry N,2
